Assay results reported in article doi:10.1101/860916 (bioRxiv, 2019).
Changes are numbered by the printed parent chain. Names and notes keep the numbering of the source.

T1: FtsZ of S. coelicolor, C-terminal His-tag fusion (Streptomyces coelicolor, UniProt P45500 1-399)
T1 sequence (looked up): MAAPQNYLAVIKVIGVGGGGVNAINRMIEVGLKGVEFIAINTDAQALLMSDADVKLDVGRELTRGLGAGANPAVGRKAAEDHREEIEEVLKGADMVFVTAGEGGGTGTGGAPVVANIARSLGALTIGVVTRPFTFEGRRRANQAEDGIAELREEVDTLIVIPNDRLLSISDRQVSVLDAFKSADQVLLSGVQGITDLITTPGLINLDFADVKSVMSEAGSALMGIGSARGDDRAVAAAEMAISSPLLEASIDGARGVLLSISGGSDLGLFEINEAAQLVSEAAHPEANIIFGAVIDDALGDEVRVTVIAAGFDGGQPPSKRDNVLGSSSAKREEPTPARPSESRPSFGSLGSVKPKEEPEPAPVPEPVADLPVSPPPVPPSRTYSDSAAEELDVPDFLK

B1: SsgB of S. coelicolor, wild type, His6-tagged (natural protein, Streptomyces coelicolor, UniProt Q9L268 1-137, looked up)
chain: MNTTVSCELHLRLVVSSESSLPVPAGLRYDTADPYAVHATFHTGAEETVEWVFARDLLAEGLHRPTGTGDVRVWPSRSHGQGVVCIALSSPEGEALLEAPARALESFLKRTDAAVPPGTEHRHFDLDQELSHILAES
B2: SsgB E120A of S. coelicolor, His6-tagged (natural protein, Streptomyces coelicolor, UniProt Q9L268 1-137, looked up)
chain: B1 chain with E120A
B3: SsgB E120G of S. coelicolor, His6-tagged (natural protein, Streptomyces coelicolor, UniProt Q9L268 1-137, looked up)
chain: B1 chain with E120G

Columns and labels:
[1] = target: SsgB of S. coelicolor, wild type, His6-tagged (Streptomyces coelicolor) (UniProt Q9L268); experiment: SEC
[2] = target: SsgB of S. coelicolor, wild type, His6-tagged (Streptomyces coelicolor) (UniProt Q9L268); experiment: crystal structure
[3] = target: T1, FtsZ of S. coelicolor, C-terminal …; experiment: co-sedimentation

Molecule	stoichiometry N [1]	stoichiometry N [2]	binding result [3]
SsgB of S. coelicolor, wild type, His6-tagged (from UniProt Q9L268 1-137) (natural protein)	3	3	–
B1	–	–	binds
B2	–	–	binds
B3	–	–	binds
